Experimental data published in article PMC6831621, “Structural Insight Into Chitin Degradation and Thermostability of a Novel Endochitinase From the Glycoside Hydrolase Family 18” (Frontiers in Microbiology, 2019).

substrate: CC(=O)N[C@H]1[C@H](Oc2ccc3c(C)cc(=O)oc3c2)O[C@H](CO)[C@@H](O[C@@H]2O[C@H](CO)[C@@H](O)[C@H](O)[C@H]2NC(C)=O)[C@@H]1O; assay: fluorogenic substrate hydrolysis, Michaelis-Menten non-linear fit; assay type: biochemical, Pseudoalteromonas aurantia; settings: McIlvaine's buffer pH 5.0, substrate 0.01-0.6 mM, temperature not given for kinetics
From the text: fluorogenic substrate hydrolysis, Michaelis-Menten non-linear fit on Chi23

| Protein | Km | Vmax | kcat |
| --- | --- | --- | --- |
| Chi23 (Pseudoalteromonas aurantia; G79A) (protein, pET22b NdeI/XhoI, His-tagged (C-terminal by primer design), E. coli BL21(DE3); monomer; forward primer encodes MSKTITYYNS, reverse primer encodes AQSLNS at the C-terminus) MSKTITYYNSGAVPLINASELPYDVVNLAFLSSSSNNPFNLVLSGAIAATESSFTTNTIEAIKVMQHKGQKVLISFGGATMGSNAYRSLSEDTAKLADSLASFVKNNQLDGVDIDYEDTAAFTGQAGYDGAQFLISLTQELRKRLPSPDYIISHAPQPPYLEQGGYMAGYVEVVELVGQEIDWLNVQFYNNPPWSANPDQIVSSYLNYTKLPNMSPEKVIAGFPVTQNDAGSGYMPVQTIINEVIKPIQQQSSLGGIMNWQFSSDHNGDWIKAIAQSLNS | 72.6 ± 6.9 µM | 0.0576 µmol/min/mg | 0.0295 ± 0.0013 s⁻¹ |
| Chi23 (Pseudoalteromonas aurantia; T80A) (protein, pET22b NdeI/XhoI, His-tagged (C-terminal by primer design), E. coli BL21(DE3); monomer; forward primer encodes MSKTITYYNS, reverse primer encodes AQSLNS at the C-terminus) MSKTITYYNSGAVPLINASELPYDVVNLAFLSSSSNNPFNLVLSGAIAATESSFTTNTIEAIKVMQHKGQKVLISFGGGAMGSNAYRSLSEDTAKLADSLASFVKNNQLDGVDIDYEDTAAFTGQAGYDGAQFLISLTQELRKRLPSPDYIISHAPQPPYLEQGGYMAGYVEVVELVGQEIDWLNVQFYNNPPWSANPDQIVSSYLNYTKLPNMSPEKVIAGFPVTQNDAGSGYMPVQTIINEVIKPIQQQSSLGGIMNWQFSSDHNGDWIKAIAQSLNS | 85.6 ± 7.2 µM | 0.0144 µmol/min/mg | 0.0073 ± 0.0003 s⁻¹ |
| Chi23 (Pseudoalteromonas aurantia; Q157A) (protein, pET22b NdeI/XhoI, His-tagged (C-terminal by primer design), E. coli BL21(DE3); monomer; forward primer encodes MSKTITYYNS, reverse primer encodes AQSLNS at the C-terminus) MSKTITYYNSGAVPLINASELPYDVVNLAFLSSSSNNPFNLVLSGAIAATESSFTTNTIEAIKVMQHKGQKVLISFGGGTMGSNAYRSLSEDTAKLADSLASFVKNNQLDGVDIDYEDTAAFTGQAGYDGAQFLISLTQELRKRLPSPDYIISHAPAPPYLEQGGYMAGYVEVVELVGQEIDWLNVQFYNNPPWSANPDQIVSSYLNYTKLPNMSPEKVIAGFPVTQNDAGSGYMPVQTIINEVIKPIQQQSSLGGIMNWQFSSDHNGDWIKAIAQSLNS | 104.1 ± 17.5 µM | 0.0044 µmol/min/mg | 0.0022 ± 0.0002 s⁻¹ |
| Chi23 (Pseudoalteromonas aurantia; N190A) (protein, pET22b NdeI/XhoI, His-tagged (C-terminal by primer design), E. coli BL21(DE3); monomer; forward primer encodes MSKTITYYNS, reverse primer encodes AQSLNS at the C-terminus) MSKTITYYNSGAVPLINASELPYDVVNLAFLSSSSNNPFNLVLSGAIAATESSFTTNTIEAIKVMQHKGQKVLISFGGGTMGSNAYRSLSEDTAKLADSLASFVKNNQLDGVDIDYEDTAAFTGQAGYDGAQFLISLTQELRKRLPSPDYIISHAPQPPYLEQGGYMAGYVEVVELVGQEIDWLNVQFYANPPWSANPDQIVSSYLNYTKLPNMSPEKVIAGFPVTQNDAGSGYMPVQTIINEVIKPIQQQSSLGGIMNWQFSSDHNGDWIKAIAQSLNS | 77.4 ± 16.2 µM | 4e-05 µmol/min/mg | 2e-05 ± 2e-06 s⁻¹ |
| Chi23 (Pseudoalteromonas aurantia; D229A) (protein, pET22b NdeI/XhoI, His-tagged (C-terminal by primer design), E. coli BL21(DE3); monomer; forward primer encodes MSKTITYYNS, reverse primer encodes AQSLNS at the C-terminus) MSKTITYYNSGAVPLINASELPYDVVNLAFLSSSSNNPFNLVLSGAIAATESSFTTNTIEAIKVMQHKGQKVLISFGGGTMGSNAYRSLSEDTAKLADSLASFVKNNQLDGVDIDYEDTAAFTGQAGYDGAQFLISLTQELRKRLPSPDYIISHAPQPPYLEQGGYMAGYVEVVELVGQEIDWLNVQFYNNPPWSANPDQIVSSYLNYTKLPNMSPEKVIAGFPVTQNAAGSGYMPVQTIINEVIKPIQQQSSLGGIMNWQFSSDHNGDWIKAIAQSLNS | 80.1 ± 6.3 µM | 0.0027 µmol/min/mg | 0.0014 ± 5e-05 s⁻¹ |
| Chi23 (Pseudoalteromonas aurantia; Q261A) (protein, pET22b NdeI/XhoI, His-tagged (C-terminal by primer design), E. coli BL21(DE3); monomer; forward primer encodes MSKTITYYNS, reverse primer encodes AQSLNS at the C-terminus) MSKTITYYNSGAVPLINASELPYDVVNLAFLSSSSNNPFNLVLSGAIAATESSFTTNTIEAIKVMQHKGQKVLISFGGGTMGSNAYRSLSEDTAKLADSLASFVKNNQLDGVDIDYEDTAAFTGQAGYDGAQFLISLTQELRKRLPSPDYIISHAPQPPYLEQGGYMAGYVEVVELVGQEIDWLNVQFYNNPPWSANPDQIVSSYLNYTKLPNMSPEKVIAGFPVTQNDAGSGYMPVQTIINEVIKPIQQQSSLGGIMNWAFSSDHNGDWIKAIAQSLNS | 86.3 ± 6.6 µM | 0.0009 µmol/min/mg | 0.0005 ± 2e-05 s⁻¹ |
| Chi23 (Pseudoalteromonas aurantia) (protein, pET22b NdeI/XhoI, His-tagged (C-terminal by primer design), E. coli BL21(DE3); monomer; forward primer encodes MSKTITYYNS, reverse primer encodes AQSLNS at the C-terminus) MSKTITYYNSGAVPLINASELPYDVVNLAFLSSSSNNPFNLVLSGAIAATESSFTTNTIEAIKVMQHKGQKVLISFGGGTMGSNAYRSLSEDTAKLADSLASFVKNNQLDGVDIDYEDTAAFTGQAGYDGAQFLISLTQELRKRLPSPDYIISHAPQPPYLEQGGYMAGYVEVVELVGQEIDWLNVQFYNNPPWSANPDQIVSSYLNYTKLPNMSPEKVIAGFPVTQNDAGSGYMPVQTIINEVIKPIQQQSSLGGIMNWQFSSDHNGDWIKAIAQSLNS | 64.6 ± 11.7 µM | 0.0107 µmol/min/mg | 0.0054 ± 0.0005 s⁻¹ |
| Chi23 (Pseudoalteromonas aurantia; N9A) (protein, pET22b NdeI/XhoI, His-tagged (C-terminal by primer design), E. coli BL21(DE3); monomer; forward primer encodes …, reverse primer encodes AQSLNS at the C-terminus) MSKTITYYASGAVPLINASELPYDVVNLAFLSSSSNNPFNLVLSGAIAATESSFTTNTIEAIKVMQHKGQKVLISFGGGTMGSNAYRSLSEDTAKLADSLASFVKNNQLDGVDIDYEDTAAFTGQAGYDGAQFLISLTQELRKRLPSPDYIISHAPQPPYLEQGGYMAGYVEVVELVGQEIDWLNVQFYNNPPWSANPDQIVSSYLNYTKLPNMSPEKVIAGFPVTQNDAGSGYMPVQTIINEVIKPIQQQSSLGGIMNWQFSSDHNGDWIKAIAQSLNS | 90.1 ± 13.4 µM | 0.0042 µmol/min/mg | 0.0021 ± 0.0002 s⁻¹ |
